Data reported in US20170088634A1, “TREATMENT OF NEUROTRAUMA USING ANTIBODIES TO LYSOPHOSPHATIDIC ACID” (priority 2012, published 2017).
Where two headings read alike, the source gives them in different places. Marks after values point to notes of the source that are not given here.

Legend:
hNS/PC neurospheres [1] = assay: Neuronal differentiation of plated neurospheres (neuron-forming neurospheres); format: cell-based, human
Procedure: (§1) Neurospheres were used to model the role of LPA in neuronal differentiation as described in commonly-owned U.S. patent application publication no. US20110076269 and U.S. Pat. No. 8,604,172. […] LPA also interferes with an additional differentiation step, namely, the differentiation of NSC toward mature cells.
Using the same conditions used in Example 2, above, for LPA treatment alone, plated neurospheres were treated with 10 μM LPA alone, or with anti-LPA antibody B3 or B7 (1 mg/ml) alone, or with 10 μM LPA in combination with 1 mg/ml of antibody B3 or B7. Similarly, cells were treated with 10 μM LPA alone, humanized anti-LPA antibody LT3015 alone (1 mg/ml), or with 10 μM LPA in combination with 1 mg/ml LT3015. The percent of neuron-forming neurospheres was quantitated as in Example 2 (beta-tubulin staining and quantification of neuron-forming spheres, as described in Dottori, et al (2008)). […] Neurosphere samples treated with B3 antibody alone had neuron-forming neurospheres equivalent to control (100%). […] The antibody B7, under similar conditions, had little to no effect in this experiment (37.00±5.31% of control).
Using the conditions described in the Example above, […] were plated onto laminin for neuronal differentiation in NBM medium (3 days), with or without LPA (10 μM), with or without antibody to LPA at 1 mg/ml (B3, B7, or the humanized antibody LT3015, tested singly with or without LPA).

hNS/PC neurospheres [2] = assay: Neurosphere formation; format: cell-based, human; conditions: LPA 10 uM
Description: as §1
Anti-LPA antibodies have been found by the inventors to block LPA inhibition of neurosphere formation, as described in commonly-owned U.S. patent application publication no. US20110076269 and U.S. Pat. No. 8,604,172.

adult mouse NSC = assay: Neuronal differentiation of adult mouse NSC; format: cell-based
Description: However, and similarly to data obtained in human NSC, LPA inhibited the neuronal differentiation of adult mouse NSC by maintaining them as NSC when plated in conditions normally inducing neuronal differentiation. […] These effects were independent of apoptosis or proliferation.

[3] = Competition ELISA, competitor lipid 18:1 LPA; format: binding; conditions: maximum inhibition
Description: (§2) Although polyclonal antibodies against naturally-occurring LPA have been reported in the literature (Chen, et al., Bioorg Med Chem Lett. 2000 Aug. 7; 10(15):1691-3), monoclonal antibodies to LPA had not been described until Sabbadini, et al., U.S. patent application publication no. 20080145360, and U.S. Pat. No. 8,158,124, both of which are commonly owned herewith. The former publication describes the production and characterization of a series of murine monoclonal antibodies against LPA and the latter describes, among other things, a humanized monoclonal antibody against LPA. IC50: Half maximum inhibition concentration; MI: Maximum inhibition (% of binding in the absence of inhibitor); ---: not estimated because of weak inhibition. A high inhibition result indicates recognition of the competitor lipid by the antibody.

[4] = cited from earlier work
[5] = Competition ELISA, competitor lipid 18:2 LPA; format: binding; conditions: maximum inhibition
Description: as §2

SKOV3 cell migration = assay: Migration assay, SKOV3 cells triggered by LPA; format: cell-based; conditions: Lpathomab, 1 mM 18:1 LPA, SKOV3, n = 3
[6] = Competition ELISA specificity, competitor lipid DSPA (distearoyl PA); format: binding; conditions: n = 3
Procedure: (§3) The specificity of the anti-LPA mAbs was assessed for their binding to LPA-related biolipids such as distearoyl-phosphatidic acid, lysophosphatidylcholine, SIP, ceramide, and ceramide-1-phosphate.

[7] = cited from earlier work; remark: listed apart in the source
interleukin-8 (IL-8) = assay: IL-8 release from ovarian cancer cells; format: cell-based
Description: Five humanized variants were further assessed in in vitro cell assays. LPA is important in eliciting release of interleukin-8 (IL-8) from cancer cells.

[8] = cited from earlier work; remark: listed apart in the source
[9] = cited from earlier work; remark: listed apart in the source
[10] = Competition ELISA specificity, competitor lipid C1P; format: binding; conditions: n = 3
human IL-8 = assay: LPA-induced IL-8 release in SKOV3 conditioned media; format: cell-based; set-up: dose or concentration left out as unconfirmed; conditions: Lpathomab 18:1 LPA, SKOV3, n = 3
[11] = Surface plasmon resonance (BiaCore) and direct binding ELISA of LT3000; conditions: Table 12
Description: (§4) The murine antibody is a full-length IgG1 k isotype antibody composed of two identical light chains and two identical heavy chains with a total molecular weight of 155.5 kDa.

[12] = Competition ELISA specificity, competitor lipid Cer; format: binding; conditions: n = 3
human IL-6 = assay: LPA-induced IL-6 release in SKOV3 conditioned media; format: cell-based; conditions: Lpathomab 300-600 mg/mL, 1 mM 18:1 LPA, SKOV3, n = 3
[13] = Binding affinity of humanized, chimeric and murine anti-LPA antibodies
[14] = Competition ELISA specificity, competitor lipid LPC; format: binding; conditions: n = 3
Procedure: as §3

Apparent Tm of antibody = format: physicochemical; conditions: pH7.4
Solubility of antibody = format: physicochemical; conditions: 6.6 mM phosphate, 154 mM sodium chloride, pH 7.4
[15] = Specificity / cross-reactivity profile; format: binding
[16] = Competition ELISA, competitor lipid 16:0 LPA; format: binding; conditions: maximum inhibition
Description: as §2

SKOV3 cells = assay: Apoptosis: Taxol induced caspase-3 activation in SKOV3 cells, LPA protection; format: cell-based; conditions: Lpathomab, 1 mM Taxol, 1 mM 18:1 LPA, SKOV3, n = 1
[17] = Competition ELISA specificity, competitor lipid S1P; format: binding; conditions: n = 3
[18] = Competition ELISA, competitor lipid 14:0 LPA; format: binding; conditions: maximum inhibition
Description: as §2

[19] = Specificity of LT3000 against other lipids and proteins; format: binding; conditions: over 100 different bioactive lipids and proteins, including over 20 bioactive lipids
Description: as §4

[20] = Competition ELISA, competitor lipid 20:4 LPA; format: binding; conditions: maximum inhibition
Description: as §2

[21] = cited from earlier work; remark: listed apart in the source
SKOV3 cell invasion = assay: Invasion assay, SKOV3 cells triggered by LPA; format: cell-based; set-up: dose or concentration left out as unconfirmed; conditions: Lpathomab 14:0 LPA, SKOV3, n = 2

lysophosphatidic acid [LPA]
decrease in neuron-forming spheres (hNS/PC neurospheres [1]; 10 uM LPA): ~80% | neuron-forming spheres, LPA alone (Example 4) (hNS/PC neurospheres [1]; 10 μM LPA, 3 days): approximately 26 % of control | neurosphere formation, LPA (hNS/PC neurospheres [2]): inhibited | neurosphere formation or growth of mouse NSC (adult mouse NSC): did not modify | βIII-tubulin expression (differentiated neurons) (adult mouse NSC; LPA (10 NM), three days, untreated 57.12±18.42%): 26.25±2.08 % of total cells | nestin positive (undifferentiated NSCs) (adult mouse NSC; LPA (10 NM), three days, untreated 58.01±6.20): 87.55±3.20 % of total cells

B1: B7: murine anti-LPA monoclonal antibody, full-length IgG1k; VH SEQ ID NO: 3, VL SEQ ID NO: 4 (antibody, V domains shown)
VH: QVQLQQSGAELVRPGTSVKVSCKASGYGFINYLIEWIKQRPGQGLEWIGLINPGSDYTNYNENFKGKATLTADKSSSTAYMHLSSLTSEDSAVYFCARRFGYYGSGNYFDYWGQGTTLTVSS
VL: DVVMTQTPLSLPVSLGDQASISCTSGQSLVHINGNTYLHWYLQKPGQSPKLLIYKVSNLFSGVPDRFSGSGSGTDFTLKISRVEAEDLGVYFCSQSTHFPFTFGTGTKLEIK
MI, competitor lipid 18:1 LPA [3]: 100% | IC50 ([4]; competition ELISA, read-out: 20:4 LPA IC50): 161 nM | 20:4 LPA MI ([4]; maximum inhibition): 67% | MI, competitor lipid 18:2 LPA [5]: 100% | Migration % Inhibition (over LPA taken as 100) (SKOV3 cell migration): 35* % | MI, competitor lipid DSPA [6]: 0% | IC50 ([7]; competition ELISA, read-out: 18:2 LPA IC50): 1490 nM | 18:2 LPA MI ([7]; maximum inhibition): 100% | IL-8 release from ovarian cancer cells (interleukin-8 (IL-8)): reduced IL-8 release | neuron-forming neurospheres, LPA plus antibody (pool of data) (hNS/PC neurospheres [1]; 10 μM LPA in combination with 1 mg/ml antibody): 37.00±5.31 % of control | number of neurons in neurospheres (comparison between antibodies) (hNS/PC neurospheres [1]; 10 μM LPA plus antibody 1 mg/ml): lesser number of neurons | neuron-forming neurospheres, LPA plus antibody (Example 4) (hNS/PC neurospheres [1]; 10 μM LPA, antibody 1 mg/ml, 3 days on laminin in NBM medium): 50 % of control | IC50 ([8]; competition ELISA, read-out: 16:0 LPA IC50): 483 nM | 16:0 LPA MI ([8]; maximum inhibition): 62.9% | IC50 ([9]; competition ELISA, half maximum inhibition concentration, read-out: 14:0 LPA IC50): 105 nM | 14:0 LPA MI ([9]; maximum inhibition (% of binding in the absence of inhibitor)): 61.3% | MI, competitor lipid C1P [10]: 1.0% | IL-8 Release % Inhibition (over LPA taken as 100) (human IL-8): 20% | Kd [11]: 0.001 to 0.05 nM | MI, competitor lipid Cer [12]: 1% | IL-6 Release % Inhibition (over LPA taken as 100) (human IL-6): 23* % | binding affinity for LPA (in words) [13]: low picomolar range | MI, competitor lipid LPC [14]: 0% | Apparent Tm (Apparent Tm of antibody): 67 °C at pH7.4 | Solubility (Solubility of antibody): >40 mg/mL in 6.6 mM phosphate, | cross-reactivity to LPC, PA, 14:0 and 18:1 LPA, cPA, PC [15]: no cross-reactivity | MI, competitor lipid 16:0 LPA [16]: 62.9% | Apoptosis % Induction (over LPA + TAXOL taken as 100) (SKOV3 cells): 79% | MI, competitor lipid S1P [17]: 2.7% | MI, competitor lipid 14:0 LPA [18]: 61.3% | binding affinity for other bioactive lipids and proteins (specificity) [19]: no binding affinity | MI, competitor lipid 20:4 LPA [20]: 67% | IC50 ([21]; competition ELISA, read-out: 18:1 LPA IC50): > 2000 nM | 18:1 LPA MI ([21]; maximum inhibition): 100% | Invasion % Inhibition (over LPA taken as 100) (SKOV3 cell invasion): 95* %
